# B1: CyanoPOX (cyanobacterium TDX16) (protein)
# chain: AQNRTIDGTDNNLSHNVWGSTNQHLDRAGPAAYADGMSMPAGGSRPSARAVSNGIAAQTGSMLNDRMLSDWVWQWGQFLDHDLDLTDAASPAESFPIPVPMGDPFFDPFNTGTQTIGLSRSAYDPATGSVDARQQMNQITSWIDASNVYGSDMTRANALRTMSGGRLATSAGDLLPFNTGGLPNAGGTSPSLFLAGDVRSNEQSGLAAVHTLFVREHNRLADQIAAANPGMGDEDIYQQARKIVGAQMQIITYNEFLPALLGSAAPSPMSIGYDDSINPNIMNEFANACYRVGHTMLSPTILRLDNAGNVIPHGNLALQDAFFNPNRIINEGGIAPILKGLASQAMQEIDNKIVDDVRNFLFGPPGSGGLDLASLNIQRGRDHGLPDYNSTRVMMGLTSVSSFADISSDPAVQAALMSLYGTVNDIDLWVGALAEDHLAGSSVGELIAAVLGEQFTRLRDGDRYWYERDDFFVNNPSLLAELQATRLSDIIRRNSDITNIQDNVFLIPEPATLGLLMFGAAFLRKRRS
# notes: Predicted protein 556 residues; synthetic codon-optimised gene, His-tagged (calculated 58 kDa), E. coli NEB10beta, monomer
# Columns and labels:
# Assay in all cases: purified protein
# Conditions in all cases: 0.5 mM H2O2, 50 mM KPi, 150 mM NaCl, pH 7.0, 25 °C
# COc1ccccc1O = tested on: COc1ccccc1O
# I = tested on: I
# purified protein [1] = substrate: I; format: biochemical, cyanobacterium TDX16
# purified protein [2] = substrate: COc1cccc(OC)c1O; format: biochemical, cyanobacterium TDX16
# purified protein [3] = substrate: COc1ccccc1O; format: biochemical, cyanobacterium TDX16
Molecule,Km (COc1ccccc1O) [mM],kcat (COc1ccccc1O) [s⁻¹],kcat/Km (COc1ccccc1O) [M⁻¹ s⁻¹],Km (I) [mM],kcat (I) [s⁻¹],kcat/Km (I) [M⁻¹ s⁻¹],Km (purified protein [1]) [mM],kcat (purified protein [1]) [s⁻¹],kcat/Km (purified protein [1]) [M⁻¹ s⁻¹],Km (purified protein [2]) [mM],kcat (purified protein [2]) [s⁻¹],kcat/Km (purified protein [2]) [M⁻¹ s⁻¹],Km (purified protein [3]) [mM],kcat (purified protein [3]) [s⁻¹],kcat/Km (purified protein [3]) [M⁻¹ s⁻¹]
bovine LPO (Bos taurus),22,10,500,14,206,15000,,,,,,,,,
B1,,,,,,,7,885,126000,35,620,18000,59,135,2000

# Source: PMC11776367, “Biochemical and Structural Characterisation of a Bacterial Lactoperoxidase” (Chembiochem, 2024)
